For assay [1], the target named is T1, Ctr9^(1–313) (S. cerevisiae, UniProt P89105 1-313).
T1 construct: In the crystal it stood as part of the single-chain fusion m36; source: E. coli BL21(DE3) Codon Plus, co-expressed with a Paf1 fragment, purified (Ni-NTA, SEC)
T1 sequence (looked up): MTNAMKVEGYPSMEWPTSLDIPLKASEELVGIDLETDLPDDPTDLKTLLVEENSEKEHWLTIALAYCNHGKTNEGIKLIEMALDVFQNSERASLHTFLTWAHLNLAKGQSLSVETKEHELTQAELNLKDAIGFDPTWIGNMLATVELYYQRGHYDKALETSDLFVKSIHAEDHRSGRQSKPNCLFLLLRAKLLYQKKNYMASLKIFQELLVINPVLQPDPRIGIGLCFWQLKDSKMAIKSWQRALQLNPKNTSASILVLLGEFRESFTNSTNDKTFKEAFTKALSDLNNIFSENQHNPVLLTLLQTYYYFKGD
Kind of assay: SEC; two fragments co-expressed in E. coli and co-purified; analytical size-exclusion column with SDS-PAGE of the fractions. The conditions noted are these: both partners purified.

Assay [2] deals with T2, Ctr9^(1–270) (S. cerevisiae, UniProt P89105 1-270).
T2 construct: S. cerevisiae Ctr9, residues 1-270
T2 sequence (looked up): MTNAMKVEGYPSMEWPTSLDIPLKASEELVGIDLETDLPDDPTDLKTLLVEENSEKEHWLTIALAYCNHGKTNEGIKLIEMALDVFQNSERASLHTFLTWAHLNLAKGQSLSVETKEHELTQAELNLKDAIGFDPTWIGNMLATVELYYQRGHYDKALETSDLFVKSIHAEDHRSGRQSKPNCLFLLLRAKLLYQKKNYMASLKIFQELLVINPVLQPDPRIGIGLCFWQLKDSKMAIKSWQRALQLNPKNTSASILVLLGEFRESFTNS
Kind of assay: AUC; sedimentation velocity, 42,000 rpm, 4 °C, interference detection; 20 mM HEPES pH 7.5, 150 mM NaCl, 1 mM EDTA, 1 mM DTT. The conditions noted are these: both partners purified.

Regarding DEDLGMPVDLMKFPGLLNKLDSKLLYGFDNVKLDKDDRILLRDPR (domain or fragment, S. cerevisiae, UniProt P38351 59-103, looked up) [Paf1^(59–103)], the binding result in assay [1] was “binds”.

B1: Paf1^(34–103) (domain or fragment, S. cerevisiae, UniProt P38351 34-103, looked up)
chain: ETNADSSQLINSLYIKTNVTNLIQQDEDLGMPVDLMKFPGLLNKLDSKLLYGFDNVKLDKDDRILLRDPR
notes: In the crystal it stood as part of the single-chain fusion m36; source: E. coli BL21(DE3) Codon Plus, co-expressed with a Ctr9 fragment, purified (Ni-NTA, SEC)
By stoichiometry N is commonly meant the number of molecules, sites or subunits per partner or assembly. Regarding B1, the “stoichiometry N” value in assay [2] was found to be 1.

(Values after PMC6143631 (Nature Communications, 2018).)
